Results as given in a protein production outcome set (Wang et al. 2014).

Assay: label from the status in PepcDB records

MTRQGWLVPCLSHGKDDQLQDELSELSKAYRKKFQTDLHTKSGDIIDPSGEFLYVYLDEENYRICRQSMVLVSNAPDGLIATTLEPYSDSYTFRQVREQLQAFSGDGGRINYSRNEHSSSYFLTIQASNEFKHVGAVRNTFGQSKDIWKRRMPDASQPLDYHLIAVGCSAFLPEAALDDVESDGAVLEHHHHHH
protein production: not failed

MERNVTLDFVRGVAILGILLLNISAFGLPKAAYLNPAWYDAITPQDAWTWAFLDLIGQVKFLTLFALLFGAGLQMLLPRGRRWIQSRLTLLVLLGFIHGLLFWDGDILLAYGLVGLGVLLLLGLISDSQTSRAWTPDASAILYEKYWKLHGGVEAISNRADGVGNSLLALGAQYGWQLAGMMLIGAALMRSGWLKGQFSLRHYRRTGFVLVAIGVTINLPAIALQWQLDWAYRWCAFLLQMPRELSAPFQAIGYASLFYGFWPQLSRFKLVLAIACVGRMALTNYLLQTLICTTLFYHLGLFMHFDRLELLAFVIPVWLANILFSVIWLRYFRQGPVEWLWRQLTLRAAGPAISKTSR
protein production: failed

MADPRTDNRNRKIPDAQVDAIKVPPHSLEAEQSVIGGLLLDNERWDTVSEHVMTQDFYSRPHRLIFDGVKSILEAGKPLDLITLSEYLEQREQLEDVGGFAYLADLAKNTPSAANINAYAEIVAERALVRNLIGVANEIADAGYDPQGRNAEDLLDLAESKVFAIAEARTSENEGPKNVDSILERTLERIELLYKTPQDGVTGVNTGFTDLNKKTAGLQGSDLIIVAARPSMGKTTFAMNLCENAAMEQDKPVLIFSLEMPAEQIMMRMLASLSRVDQTKIRTGQLDDEDWARISSTMGILMEKKNMYIDDSSGLTPTEVRSRARRIAREHGGLSLIMVDYLQLMRVPALTDNRTLEIAEISRSLKALAKELNVPVVALSQLNRSLEQRADKRPVNSDLRESGSIEQDADLIMFIYRDEVYHPDSPLKGTAEIIIGKQRNGPIGSVRLTFQGHYSRFDNYAGPAFDDE
protein production: not failed

GDFGRHSITSGGSGGGGFRQRGSSGSSSRHTERGYSSGRSGASSYNGREGGGSGFNRREVYGGGRDSSRYSSGSSASYGRTGGQSAGRFRSRSPVGNHRF
protein production: failed

MAAARDQLQMAADVARLGIWRWNLADDSLQWNERMCEMYGQPLALRDGGLVYEHWRSRLHPEDLERTEASLRAAVEGRGNYDVIFRVVLPDGGIRFIQAGAQVERDADGNPLQVTGINIDITSDQQLQARLREAKEQADAASAAKSSFLANMSHEIRTPMNAVLGML
protein production: failed

MRLLAILILCILVAACDRQAATEELTEARSAFANREWNDAERLLEGYLRRNPEGAQRWEAWNLLVEVAHRVRNDERATVELLETMYLENGSNPERAYDILTRLGELLEAGRDFRRAAEVWPRVLELPGLTPDTRALVSRRLARILVMQRRFPEAEERLKACLDTEGLSTEGRAGCLYDLADLNVASEHLDVAVDLATTLVGLEGLTPELRSQAGFLLADALEQRGRFAEALERFEALRGVYPNDMVIDTRVRHLKGRLGRK
protein production: failed

MNLGILLGFLIYLVLLAYIGWWANRYTKTEEQYFIGGRKVHVLAATLSDKASDFSGWLMLGYPGTAFKTGLGAFWAAIGCLFGTLADYLLIGPRLRIYAGKFRSITLPDYLEARLKDNTKLIRILSAAIILIFMTAYVAAQFAAGGKTFSEAFGVSVTTGILITVIILTAYVITGGFFAVVWTDVVQAMFMLLTLIIMPILALAEIGGLDKATQIIGSVNPAKLHPFGGATGLAAIVFAIGYASWIVGYLGQPHIVTRYMSVEDPRKLRRPGIFISGIWTTIVLWGAFFAGFLGFALAINGSIKIDDPEKIVPAMAVHFLPSWIAGFVIAGIISAVMSTADSQLLVASSAIARDIYHKVLGQELGKKQMVNISRVVVAIVSLIAMWFAISGPKVIYQMVATAWGGLAVGFGPILTLSLWWKRVTKEAGIIGMGYGLISEVLLEAKIYGWAFNPNAPGFFGTLGKWFNGVPVFFINFFITLLVIIIVSLLTKPPEDVVKLHKELFKKVPIEKSEKIKVARAKSQAENVFDFAIASGLL
protein production: failed

IEEVYEATLDAIQGALNCDRASILLFDEAGTMRFVAARGLSEHYQRAVDGHSPWITGANEPEPIFVENVDDAEFSRELKESIVGEGIAALGFFPLVTEGRLIGKFMTYYDRPHRFADSEIGMALTIARQLGFSIQRMRAEYARRQAEE
protein production: not failed

MFLGELTERPVSLYAAAVLRIGYGLLYLAFLLREFPHRDEIWGPGSPWTPELARQLFDQTGWVSILTLSDGRAYFEACYALALVTCALFLLGWRTRAVSVLFAVVVASFHARAIFMTDGGDNLVLLMAVYLVFTACGRRWSLDARRTRLRAGASPAASPPARQEADGFRRQLGASRRTLTAVLHNCGMFVIAAQVCFLYGSAGLYKVQGGSWGNGTALHYVLNLDLFRPWPELSLLTDEHDVLMAIACYLTVLLQVAFPFVLFGRLKYPVLTVLLGMHLGIAVLLGLPLFSGAMIVADAVFLPDRCYLLLGRLWRRAGRRTGSTEAGAPARGESAFLPPQSAVSSPRTAAAPVRGRRA
protein production: failed

MSLANRIRLHIWGDYACFTRPEMKVERVSYDVITPSAARGILSAIHWKPAINWVIDKIYVLKPIRFESVRRNELGAKISESKVSGAMKRKSVADLYTVIEDDRQQRAATVLKDVAYVIEAHAVMTSKAGVDENTTKHIEMFKRRALKGQCFQQPCMGVREFPAHFALIDDNDPLPLSQLSESEFNRDLGWMLHDIDFEHGNTPHFFRAELKNGVIDVPPFYAEEVKREGHHHHHH
protein production: not failed

MPKLTKRILDAAGARPTPYFLWCSDLKGFGVRIFPSGRRVYYADYRTAAGMRRRMSLGEHGKLTVDEARRLAITTLGDVIRGDDPIEERVTRRKSLTIAELCRRYLEAAGAGLVLGRGRKPKKATTLVSDRGRIEHHIVPLLGSRLVRDLTTAEVQRFVRDVQAGRTAKRYKTKARGMVLVEGGAGAAARTAGLLGGIMSYAIGEGVIALNPVRGVKRPADRKKDRRLSPEEYRALGRVLAEAEGDRESWQAVSSIQLLCLTGCRMREIANLRWTEVDFAGRCLRLDNTKEGRSIRPLGQAAVALLRQIEERRAGPYVLPATRGEGGFGGIPDAIERYSKRAGLPGIGAHTLRHSFASTAADLGCSDSTIGAMLGHAGHGVTSRYIHHLDAVLIMAADRVTTAMAGWLKDRYAERLEPAYPASRTVPLS
protein production: failed

MRNCIFYSLVLALLFLIGSCKDSDDNKTTGATYDPNQPVTVESFMPVEGKLREKVIVKGSNFGTDKSKVKVYFVDEAAERLSTVIGIDNNTLYCLAPRQLPGGNRIKVIVDGKEVTTDGTFKYEQAQNVSTISGSASKDGNDDGDLASAKFKYMWGIAAVGNNTVLAYQRDDPRVRLISVDDNKVTTVHPGFKGGKPAVTKDKQRVYSIGWEGTHTVYVYMKASGWAPTRIGQLGSTFSGKIGAVALDETEEWLYFVDSNKNFGRFNVKTQEVTLIKQLELSGSLGTNPGPYLIYYFVDSNFYMSDQNLSSVYKITPDGECEWFCGSATQKTVQDGLREEALFAQPNGMTVDEDGNFYIVDGFKGYCLRKLDILDGYVSTVAGQVDVASQIDGTPLEATFNYPYDICYDGEGGYWIAEAWGKAIRKYAVE
protein production: failed

MRIDKFLQSVGLVKRRVLATDMCNVGAVWLNGSCAKASKEVKAGDTISLHYLKGIEEYTILQIPALKNVPRKDTHLYIAPKTKE
protein production: failed

MDDLKTRVITASVVAPFVVLCFVSYESLIGLVSAILILAGYELITLEMKERDARFFYVILLALYPVLYGLVFEEPTQPLSILFITGVVFSLITDKDPSQVFKTVAAFSIALIYVTFFLSFFLPIYRDFGAANALLVLTSTWVFDSFAYFTGLKFGRTRISPRYSPRKSLEGVIGGFLGVVIYTFLYRLVVNDLLSVNVISFRTFLPFAATVAIMDTFGDIFESALKRHYGVKDSGKTLPGHGGMLDRIDGLLFVAPVSYIVFKILEGVVR
protein production: failed

MNISPKAIKVRNIWIGGTEPCICAPVVGEDDRKVLREAEEVCRKQPDLLEWRADFFRAIDDQERVLATANGLRNIAGEIPILFTIRSEREGGQPIPLNEAEVRRLIEAICRSGAIDLVDYELAYGERIADVRRMTEECSVWLVVSRHYFDGTPRKETLLADMRQAERYGADIAKVAVMPKSPEDVLVLLQATEEARRELAIPLITMAMGGLGAITRLAGWLFGSAVTFAVGNQSSAPGQIPIDDVRTVLSILQTYSR
protein production: not failed

GRYEIRFSGAGGQGLILAGVIMAEAASIYDGKQAVQSQSYGPEARGGASKSEVIISDGPVDYPKATQCDALLALTQEACDKYSADLKEGGVLLVDSDLVTKLPPGNYQTTAFNIINTAKNDVGREIVANIVALGAMVALTGVVSKEAAEKAVLSRVPEAFVELNRKAFQMGFEKALAAKK
protein production: not failed

MKAVTTSPSDPPDPFDPLDPVDPLASTKPEVDVVLPCLDEADALPWVLARIPPGWRALVVDNGSTDGSAEIARRLGATVVPETRRGFGAACHAGLTAATADIVCFCDCDGSLDPSLLVPFVREVRDGAADLVLGRRRPHGRGAWPAHARAGNLALARMLRRRTGLRLHDLGPLRAARREPLLALGLTDRRSGYPLQMVVRAADAGWRIAEHDVPYLPRTGVSKVTGTWRGTWQAVRDMSRVLAEPAQDGPPESGSLSSSQGGSSQLEHHHHHH
protein production: failed

MSKIEDIRKFYARLMAANAASSDPRLEQVFATVPREAFLGPGPWTIVAGSGRVTTPSADPAHIYQNVLVALDADKGINNGEPFLHAMWIGKLAPKPGEAVTHVGAGTGYYSAVLARLVSPGGTVTAFELEGRLADLARKNLEIYGNATVIHGDAVTRPLPPSDIIYVNAGVVAPPVGWLKALRPGGRMIFPWRPSERVPLAVMVTRTEKGFACDPFMRSWFIPCIGASVADLAAKIPTPEQATRSRSIWLTQHKAPDRTATAIFGDVWFSTKDVRAKPGS
protein production: failed

MAKRKKKEVFDWEDEDQEEIIWVSKSEIKRDAEDLKQLGEKIVNLTKANLAKIPLDESLLDAIELAQRLQKEARRRQLQYIGKLFRGIDVEPIREALDKIENKHNQQQAMLHKIEKVRDELVEKGDVALTDLLNDYPNGDRQQLRNLIRSAQKELEQNKPSKAYREIYQMLKVLMLED
protein production: failed

MTYEAGCGLIKALEDPDNRVRQRAVKTLGKRGNPDVLEDLMEALKDSRQPVQEAASEALRKIIAASDSVPVLVKALDATDRNVRKAAIEALWKAGTPEAIPPLLRELDDADWYLRSRAADALADIASPEAALGLIKVMDIHDSPVKKIIVNALGKIGTVEAVEGLVKALEDLEHHHHHH
protein production: failed

MLCCPDPRRRGQHNNRRRNAMPKLHESRIHDLRPTQLTVGMIEVQAKKTHLAAMAPADQQAFMQAHPIPAVLGPGGQLYITDHHHLGRAALDAGVITGYFMVEADLSQHSLDDFWKAMDQNLWVHPLDEHGVRHYYASIPKHLEKLVDDPYRSLAGYVRDAGGYDKTPTAFAEFVWADFFRRSIPIEDLLADFQAAVHAALPLAKSKFAKALPGYNGKLEHHHHHH
protein production: failed

VTPEQLQHHRFVLESVNGKPVTSDKNPPEISFGEKMMISGSMCNRFSGEGKLSNGELTAKGLAMTRMMCANPQLNELDNTISEMLKEGAQVDLTANQLTLATAKQTLTYKLADLMN
protein production: not failed

MQNTIIQKAVNKDLNSILEITKDALNAMKTMNFHQWDENYPNEIVFQEDIQAQELYVFKENDEILGFICINEKFKPEFYKQVIFNKNYDDKAFYLHRLAVKQNAKGKGVAQKLLNFCENFALENHKASLRADTHSKNFPMNSLFKKLDFNFCGNFDIPNYQ
protein production: failed

MEIHSSAAAEVFPVCRSLLGKLPAHSHNRSVAPTVCDYYPQIMKTYNSKMTTQHSSDIRNSQNISASFVTPHDAPVTSRKYVPKFNSNNHRIKTAAAFEKGSDIYHAVRPNYPNSVIELLNLSPNSRVLDIGCGTGKLTEQIAQQTSSVYALDPSKDMLDSFRSTLDIPSWQATAEQTAVSDSRFSTLTCAQTWHWVEPLAASAELDRISTDDAQLLLVWNTLDVSVPWVHRLSRIMHSGDTLAEGFIPHVAQPWELVSVLRGKHAQELYPDQIHTLAHTRSYWLRASEKTREKLTHNLSWYLTDHLELPSTSLVEIPYRFDAFLYKKALVKTQ
protein production: failed
